Source: article PMC3631511

How the values were obtained:
[1] = molecular target: ΔE22-Aβ_(1-39) (Japanese mutant Aβ); experiment: fluorescence polarisation
[2] = molecular target: ΔE22-Aβ_(1-39) (Japanese mutant Aβ); experiment: critical concentration

Substance: ΔE22-Aβ_(1-39) (Japanese mutant Aβ) (peptide)
- k (first-order rate constant of the increase in anisotropy on aggregation) [1]: 0.08 s⁻¹
- critical concentration (Cr) [2]: 0.167 µM
